± gives the standard deviation of the averaged measurements.
Experiment: total protein half-life in vivo (active degradation + dilution); higher = more stable protein
[1] = E. coli NCM3722 delta-clpP delta-lon delta-hslV, growth: N-lim chemostat, doubling time 6 h
[2] = E. coli NCM3722 delta-clpP, growth: N-lim chemostat, doubling time 6 h
[3] = E. coli NCM3722 delta-hslV, growth: N-lim chemostat, doubling time 6 h
[4] = E. coli NCM3722 delta-lon, growth: N-lim chemostat, doubling time 6 h
[5] = E. coli NCM3722 delta-smpB, growth: N-lim chemostat, doubling time 6 h
[6] = wild type E. coli NCM3722, growth: C-lim chemostat, doubling time 3 h
[7] = wild type E. coli NCM3722, growth: C-lim chemostat, doubling time 6 h
[8] = wild type E. coli NCM3722, growth: C-lim chemostat, doubling time 12 h
[9] = wild type E. coli NCM3722, growth: N-lim chemostat, doubling time 6 h
[10] = wild type E. coli NCM3722, growth: N-lim chemostat, doubling time 12 h
[11] = wild type E. coli NCM3722, growth: P-lim chemostat, doubling time 6 h
[12] = wild type E. coli NCM3722, growth: P-lim chemostat, doubling time 12 h

| Sequence | total protein half-life in vivo [1] [h] | total protein half-life in vivo [2] [h] | total protein half-life in vivo [3] [h] | total protein half-life in vivo [4] [h] | total protein half-life in vivo [5] [h] | total protein half-life in vivo [6] [h] | total protein half-life in vivo [7] [h] | total protein half-life in vivo [8] [h] | total protein half-life in vivo [9] [h] | total protein half-life in vivo [10] [h] | total protein half-life in vivo [11] [h] | total protein half-life in vivo [12] [h] |
| --- | --- | --- | --- | --- | --- | --- | --- | --- | --- | --- | --- | --- |
| MKLQNSFRDYTAESALFVRRALVAFLGILLLTGVLIANLYNLQIVRFTDYQTRSNENRIKLVPIAPSRGIIYDRNGIPLALNRTIYQIEMMPEKVDNVQQTLDALRSVVDLTDDDIAAFRKERARSHRFTSIPVKTNLTEVQVARFAVNQYRFPGVEVKGYKRRYYPYGSALTHVIGYVSKINDKDVERLNNDGKLANYAATHDIGKLGIERYYEDVLHGQTGYEEVEVNNRGRVIRQLKEVPPQAGHDIYLTLDLKLQQYIETLLAGSRAAVVVTDPRTGGVLALVSTPSYDPNLFVDGISSKDYSALLNDPNTPLVNRATQGVYPPASTVKPYVAVSALSAGVITRNTTLFDPGWWQLPGSEKRYRDWKKWGHGRLNVTRSLEESADTFFYQVAYDMGIDRLSEWMGKFGYGHYTGIDLAEERSGNMPTREWKQKRFKKPWYQGDTIPVGIGQGYWTATPIQMSKALMILINDGIVKVPHLLMSTAEDGKQVPWVQPHEPPVGDIHSGYWELAKDGMYGVANRPNGTAHKYFASAPYKIAAKSGTAQVFGLKANETYNAHKIAERLRDHKLMTAFAPYNNPQVAVAMILENGGAGPAVGTLMRQILDHIMLGDNNTDLPAENPAVAAAEDH [P0AD65] | 7.59 ± 0.27 | 6.61 ± 0.79 | 6.75 ± 0.56 | 6.37 ± 0.078 | 5.71 ± 0.077 | 3.03 ± 0.031 | 6.92 ± 1.1 | 11.8 ± 0.77 | 6.5 ± 0.79 | 13.4 ± 0.88 | 6.24 ± 0.3 | 13.7 ± 1 |
| MKLRDSLAENKSIRLQAEAETWQEAVKIGVDLLVAADVVEPRYYQAILDGVEQFGPYFVIAPGLAMPHGRPEEGVKKTGFSLVTLKKPLEFNHDDNDPVDILITMAAVDANTHQEVGIMQIVNLFEDEENFDRLRACRTEQEVLDLIDRTNAAA |  |  |  |  | 3.07 | 3.32 ± 0.71 | 3.97 ± 0.22 | 7.31 | 3.02 |  | 4.94 ± 0.59 | 7.637 ± 0.049 |
| MKLSRISAINWNKISDDKDLEVWNRLTSNFWLPEKVPLSNDIPAWQTLTVVEQQLTMRVFTGLTLLDTLQNVIGAPSLMPDALTPHEEAVLSNISFMEAVHARSYSSIFSTLCQTKDVDAAYAWSEENAPLQRKAQIIQQHYRGDDPLKKKIASVFLESFLFYSGFWLPMYFSSRGKLTNTADLIRLIIRDEAVHGYYIGYKYQKNMEKISLGQREELKSFAFDLLLELYDNELQYTDELYAETPWADDVKAFLCYNANKALMNLGYEPLFPAEMAEVNPAILAALSPNADENHDFFSGSGSSYVMGKAVETEDEDWNF | 3.43 ± 1.1 | 3.14 ± 0.99 |  |  | 2.03 | 2.18 ± 0.23 | 3.25 ± 0.41 | 4.27 | 1.85 |  |  | 6.6 |
| MKLTDADNAADGIFFPALEQNMMGAVLINENDEVMFFNPAAEKLWGYKREEVIGNNIDMLIPRDLRPAHPEYIRHNREGGKARVEGMSRELQLEKKDGSKIWTRFALSKVSAEGKVYYLALVRDASVEMAQKEQTRQLIIAVDHLDRPVIVLDPERHIVQCNRAFTEMFGYCISEASGMQPDTLLNIPEFPADNRIRLQQLLWKTARDQDEFLLLTRTGEKIWIKASISPVYDVLAHLQNLVMTFSDITEERQIRQLEGNILAAMCSSPPFHEMGEIICRNIESVLNESHVSLFALRNGMPIHWASSSHGAEIQNAQSWSATIRQRDGAPAGILQIKTSSGAETSAFIERVADISQHMAALALEQEKSRQHIEQLIQFDPMTGLPNRNNLHNYLDDLVDKAVSPVVYLIGVDHIQDVIDSLGYAWADQALLEVVNRFREKLKPDQYLCRIEGTQFVLVSLENDVSNITQIADELRNVVSKPIMIDDKPFPLTLSIGISYDLGKNRDYLLSTAHNAMDYIRKNGGNGWQFFSPAMNEMVKERLVLGAALKEAISNNQLKLVYQPQIFAETGELYGIEALARWHDPLHGHVPPSRFIPLAEEIGEIENIGRWVIAEACRQLAEWRSQNIHIPALSVNLSALHFRSNQLPNQVSDAMHAWGIDGHQLTVEITESMMMEHDTEIFKRIQILRDMGVGLSVDDFGTGFSGLSRLVSLPVTEIKIDKSFVDRCLTEKRILALLEAITSIGQSLNLTVVAEGVETKEQFEMLRKIHCRVIQGYFFSRPLPAEEIPGWMSSVLPLKI | 5.66 ± 0.45 | 3.42 ± 0.28 | 4.21 ± 0.49 | 3.8 ± 0.26 | 3.55 ± 0.9 | 1.63 ± 0.42 | 4.27 ± 0.69 | 6.85 ± 0.2 | 4.01 ± 0.26 | 7.043 ± 0.059 | 2.56 ± 0.83 | 4.93 ± 0.014 |
| MKLTIIRLEKFSDQDRIDLQKIWPEYSPSSLQVDDNHRIYAARFNERLLAAVRVTLSGTEGALDSLRVREVTRRRGVGQYLLEEVLRNNPGVSCWWMADAGVEDRGVMTAFMQALGFTAQQGGWEKC | 4.23 ± 0.29 | 3.9 ± 0.53 | 5.19 |  | 3.46 ± 0.21 |  | 6.2 ± 1.2 | 11.91 ± 0.065 | 3.31 | 6.11 ± 1.4 | 5.99 ± 0.11 | 12.9 ± 2.6 |
| MKLTLKNLSMAIMMSTIVMGSSAMAADSNEKIVIAHRGASGYLPEHTLPAKAMAYAQGADYLEQDLVMTKDDNLVVLHDHYLDRVTDVADRFPDRARKDGRYYAIDFTLDEIKSLKFTEGFDIENGKKVQTYPGRFPMGKSDFRVHTFEEEIEFVQGLNHSTGKNIGIYPEIKAPWFHHQEGKDIAAKTLEVLKKYGYTGKDDKVYLQCFDADELKRIKNELEPKMGMELNLVQLIAYTDWNETQQKQPDGSWVNYNYDWMFKPGAMKQVAEYADGIGPDYHMLIEETSQPGNIKLTGMVQDAQQNKLVVHPYTVRSDKLPEYTPDVNQLYDALYNKAGVNGLFTDFPDKAVKFLNKE | 5.71 ± 0.74 | 6.03 ± 0.55 | 5.36 ± 0.34 | 7.08 ± 0.86 | 4.739 ± 0.036 | 3.12 ± 0.32 | 6.48 ± 0.5 | 11.4 ± 0.14 | 5.53 ± 0.091 | 10.9 ± 1.6 | 5.23 ± 0.11 | 11.7 ± 0.17 |
| MKLTTHHLRTGAALLLAGILLAGCDQSSSDAKHIKVGVINGAEQDVAEVAKKVAKEKYGLDVELVGFSGSLLPNDATNHGELDANVFQHRPFLEQDNQAHGYKLVAVGNTFVFPMAGYSKKIKTVAQIKEGATVAIPNDPTNLGRALLLLQKEKLITLKEGKGLLPTALDITDNPRHLQIMELEGAQLPRVLDDPKVDVAIISTTYIQQTGLSPVHDSVFIEDKNSPYVNILVAREDNKNAENVKEFLQSYQSPEVAKAAETIFNGGAVPGW | 5.58 ± 0.19 | 6.82 ± 1.4 |  | 6.47 ± 0.86 | 6.67 ± 0.91 | 2.86 ± 0.047 | 5.49 ± 0.059 | 10.7 ± 1.3 | 5.44 ± 0.46 | 12.6 ± 2.8 | 5.38 ± 0.23 | 10.6 ± 0.015 |

— the supplement of paper PMC11246515
